Laboratory results as given in article PMC12221368, “Long AKAP18 isoforms anchor ubiquitin specific proteinases and coordinate calcium reuptake at the sarcoplasmic reticulum” (The Journal of Biological Chemistry, 2025).

Experiments:
GFP-AKAP18γ = GFP-AKAP18γ (UniProt Q9P0M2)
GFP-AKAP18δ = GFP-AKAP18δ (UniProt Q6JP77 1-353); test: cell-based or functional assay
Sequence of GFP-AKAP18δ (Q6JP77 whole entry, stated change not applied): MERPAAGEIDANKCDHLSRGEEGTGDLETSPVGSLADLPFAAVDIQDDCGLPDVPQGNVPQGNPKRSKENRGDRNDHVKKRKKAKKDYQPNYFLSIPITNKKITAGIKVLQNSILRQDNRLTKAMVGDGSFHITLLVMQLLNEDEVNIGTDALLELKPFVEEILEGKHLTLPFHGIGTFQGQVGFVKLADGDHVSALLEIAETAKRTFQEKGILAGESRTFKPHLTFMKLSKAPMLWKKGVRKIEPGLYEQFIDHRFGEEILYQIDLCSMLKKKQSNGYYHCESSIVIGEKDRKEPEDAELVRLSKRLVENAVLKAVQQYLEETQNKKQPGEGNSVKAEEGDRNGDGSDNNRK

Sequence of GFP-AKAP18γ (Q9P0M2 whole entry): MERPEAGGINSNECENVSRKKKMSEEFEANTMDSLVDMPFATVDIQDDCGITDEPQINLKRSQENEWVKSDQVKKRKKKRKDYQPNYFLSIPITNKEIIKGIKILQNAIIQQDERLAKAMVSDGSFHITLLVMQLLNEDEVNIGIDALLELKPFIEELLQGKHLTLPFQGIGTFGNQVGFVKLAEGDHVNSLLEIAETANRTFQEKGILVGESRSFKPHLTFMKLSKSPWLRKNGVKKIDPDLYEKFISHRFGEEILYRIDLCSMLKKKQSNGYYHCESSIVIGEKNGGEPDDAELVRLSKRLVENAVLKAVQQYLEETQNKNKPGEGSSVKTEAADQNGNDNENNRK

deubiquitinase activity (Ub-AMC fluorescent assay) in GFP immune complexes, fold over IgG controls, n = 3 (GFP-AKAP18γ): 7.5 fold
deubiquitinase activity (Ub-AMC fluorescent assay) in GFP immune complexes, fold over IgG controls, n = 3 (GFP-AKAP18δ): 9.2 fold
B1: V5-tagged USP4 (enzyme, UniProt Q13107 1-963, looked up)
chain: MAEGGGCRERPDAETQKSELGPLMRTTLQRGAQWYLIDSRWFKQWKKYVGFDSWDMYNVGEHNLFPGPIDNSGLFSDPESQTLKEHLIDELDYVLVPTEAWNKLLNWYGCVEGQQPIVRKVVEHGLFVKHCKVEVYLLELKLCENSDPTNVLSCHFSKADTIATIEKEMRKLFNIPAERETRLWNKYMSNTYEQLSKLDNTVQDAGLYQGQVLVIEPQNEDGTWPRQTLQSKSSTAPSRNFTTSPKSSASPYSSVSASLIANGDSTSTCGMHSSGVSRGGSGFSASYNCQEPPSSHIQPGLCGLGNLGNTCFMNSALQCLSNTAPLTDYFLKDEYEAEINRDNPLGMKGEIAEAYAELIKQMWSGRDAHVAPRMFKTQVGRFAPQFSGYQQQDSQELLAFLLDGLHEDLNRVKKKPYLELKDANGRPDAVVAKEAWENHRLRNDSVIVDTFHGLFKSTLVCPECAKVSVTFDPFCYLTLPLPLKKDRVMEVFLVPADPHCRPTQYRVTVPLMGAVSDLCEALSRLSGIAAENMVVADVYNHRFHKIFQMDEGLNHIMPRDDIFVYEVCSTSVDGSECVTLPVYFRERKSRPSSTSSASALYGQPLLLSVPKHKLTLESLYQAVCDRISRYVKQPLPDEFGSSPLEPGACNGSRNSCEGEDEEEMEHQEEGKEQLSETEGSGEDEPGNDPSETTQKKIKGQPCPKRLFTFSLVNSYGTADINSLAADGKLLKLNSRSTLAMDWDSETRRLYYDEQESEAYEKHVSMLQPQKKKKTTVALRDCIELFTTMETLGEHDPWYCPNCKKHQQATKKFDLWSLPKILVVHLKRFSYNRYWRDKLDTVVEFPIRGLNMSEFVCNLSARPYVYDLIAVSNHYGAMGVGHYTAYAKNKLNGKWYYFDDSNVSLASEDQIVTKAAYVLFYQRRDDEFYKTPSLSSSGSSDGGTRPSSSQQGFGDDEACSMDTN
